Publication PMC11419155 (bioRxiv, 2024)

B1: recombinant Fab 3H4 (Fab, V domains shown)
VH: QVQLKESGPGLVAPSQSLSISCTVSGFSLTTFGIHWIRQPPGKGLEWLGVIWAAGTTNYNSTLKSRLTITKDNSRSQVFLKMNSLQTYDTAIYYCVREDYDYFFGLDYWGQGTSVTVSS
VL: QAVVTQESALTTSPGETVTLTCRSSTGAVTTSNYASWVQEKPDHLFIGLIGGTNNRAPGVPARFSGSLIGDKAALTITGAQTDDEAIYFCALWFSNHWVFGGGTKLTVL
B2: recombinant Fab 3B4 (Fab, V domains shown)
VH: QVQLHQPGAELVKPGASVNLSCKASGYTFTSYWMHWVKQRPGQGLEWIGEINPSSGRANYNEKFKNKATLTVDKSSITAYMHLSSLTSEDSAVYYCHWDYYAMDYWGQGTSVTVSS
VL: DIVLTQSPATLSVTPGDSVSLSCRASQSISNNLHWYQQKSHESPRLLFKSASQSISGIPSRFSGSGSGTDFTLSINSVETEDFGMYFCQQTNSWPLTFGTGTKLDLK

Target: recombinant HAstV1 capsid spike, histidine-tagged (Human astrovirus 1 (AAC34717.1), UniProt O12792)
Assay: BLI

Sequence of recombinant HAstV1 capsid spike, histidine-tagged (O12792 429-645): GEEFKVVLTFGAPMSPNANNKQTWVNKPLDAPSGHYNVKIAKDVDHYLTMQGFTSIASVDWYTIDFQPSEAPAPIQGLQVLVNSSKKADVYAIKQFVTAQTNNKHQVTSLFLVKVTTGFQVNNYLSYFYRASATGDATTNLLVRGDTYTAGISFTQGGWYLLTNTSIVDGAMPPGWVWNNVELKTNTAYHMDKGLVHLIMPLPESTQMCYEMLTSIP

Binder | Kd [nM]
B1 | 0.49
B2 | 11.8
